Data on 2 molecules can be found in US20110306105A1 (University of California, published 2011).

For test [1], the target named is T1, scaffoldin Scaf-c displayed on the yeast cell surface (chimeric: C. cellulolyticum cohesin …).
T1 construct: also called Sacf-c; not shown: yeast surface display anchor of vector pCTCON2; C-terminal c-Myc tag
T1 chain: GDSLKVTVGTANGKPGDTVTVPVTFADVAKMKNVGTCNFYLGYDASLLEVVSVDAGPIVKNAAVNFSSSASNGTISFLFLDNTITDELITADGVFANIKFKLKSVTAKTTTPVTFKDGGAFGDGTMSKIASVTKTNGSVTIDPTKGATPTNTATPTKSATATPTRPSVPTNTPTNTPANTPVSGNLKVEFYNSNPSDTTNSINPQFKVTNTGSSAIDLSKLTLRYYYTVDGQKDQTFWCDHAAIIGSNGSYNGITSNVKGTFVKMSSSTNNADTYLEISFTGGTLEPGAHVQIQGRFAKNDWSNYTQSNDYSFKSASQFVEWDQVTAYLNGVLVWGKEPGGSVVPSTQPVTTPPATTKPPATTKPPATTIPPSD
Description: immunofluorescence microscopy with anti-His6 on yeast displaying Scaf-c incubated with E. coli lysate.

Test [2] deals with T2, scaffoldin Scaf-ct displayed on the yeast cell surface (chimeric: C. cellulolyticum, C. …).
T2 construct: also called Sacf-ct; not shown: yeast surface display anchor of vector pCTCON2; C-terminal c-Myc tag
T2 chain: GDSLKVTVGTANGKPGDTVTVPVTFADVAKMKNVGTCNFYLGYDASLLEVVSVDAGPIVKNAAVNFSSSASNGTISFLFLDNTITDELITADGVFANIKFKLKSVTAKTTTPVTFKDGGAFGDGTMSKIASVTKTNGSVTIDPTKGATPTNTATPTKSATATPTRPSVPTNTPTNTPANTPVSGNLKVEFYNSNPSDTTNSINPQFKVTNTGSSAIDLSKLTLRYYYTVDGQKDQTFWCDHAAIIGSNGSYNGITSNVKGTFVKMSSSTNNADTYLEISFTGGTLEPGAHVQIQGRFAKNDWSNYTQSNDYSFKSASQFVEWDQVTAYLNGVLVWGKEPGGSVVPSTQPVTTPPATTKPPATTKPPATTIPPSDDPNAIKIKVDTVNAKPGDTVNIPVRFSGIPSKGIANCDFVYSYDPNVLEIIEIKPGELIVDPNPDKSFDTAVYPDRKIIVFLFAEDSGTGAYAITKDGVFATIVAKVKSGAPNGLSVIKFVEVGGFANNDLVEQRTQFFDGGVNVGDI
Description: immunofluorescence microscopy with anti-His6 on yeast displaying Scaf-ct incubated with E. coli lysate.

In test [3] the target is T3, trifunctional scaffoldin Scaf-ctf displayed on the yeast (S. cerevisiae EBY100) cell surface (chimeric: C. cellulolyticum, C. …, Displayed on the S. cerevisiae EBY100 cell surface through an N-terminal anchor fusion, which the letters do not carry.).
T3 construct: also called Sacf-ctf; SCAF6; not shown: N-terminal yeast display anchor and linker of vector pCTCON2 (called the GPI anchor); C-terminal c-Myc tag; the vector junctions; possibly a His stretch carried over from pETscaf6, since reverse primer R1SalI anneals on His codons
T3 chain: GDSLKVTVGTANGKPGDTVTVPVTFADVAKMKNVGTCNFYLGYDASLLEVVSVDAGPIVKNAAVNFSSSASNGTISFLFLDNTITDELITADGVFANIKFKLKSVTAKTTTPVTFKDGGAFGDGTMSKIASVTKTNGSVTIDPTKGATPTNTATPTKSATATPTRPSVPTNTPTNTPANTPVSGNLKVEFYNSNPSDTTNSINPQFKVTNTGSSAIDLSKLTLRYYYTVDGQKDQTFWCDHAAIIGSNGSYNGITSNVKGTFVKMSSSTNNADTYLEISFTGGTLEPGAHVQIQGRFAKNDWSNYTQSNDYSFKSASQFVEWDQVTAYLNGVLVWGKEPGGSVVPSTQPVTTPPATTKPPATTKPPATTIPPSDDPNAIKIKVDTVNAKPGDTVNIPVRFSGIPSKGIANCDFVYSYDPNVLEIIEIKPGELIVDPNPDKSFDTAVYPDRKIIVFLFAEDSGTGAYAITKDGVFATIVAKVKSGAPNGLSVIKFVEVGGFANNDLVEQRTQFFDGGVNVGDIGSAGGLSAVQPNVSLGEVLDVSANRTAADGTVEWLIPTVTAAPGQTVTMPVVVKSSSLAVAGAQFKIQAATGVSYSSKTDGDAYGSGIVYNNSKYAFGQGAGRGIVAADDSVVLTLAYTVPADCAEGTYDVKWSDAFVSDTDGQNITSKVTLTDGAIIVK
Description: immunofluorescence microscopy, yeast displaying Scaf-ctf incubated with E. coli lysate.

B1: endoglucanase CelG from C. cellulolyticum fused to a dockerin domain from R. flavefaciens (Gf), His6-tagged (enzyme)
chain: MGTYNYGEALQKSIMFYEFQRSGDLPADKRDNWRDDSGMKDGSDVGVDLTGGWYDAGDHVKFNLPMSYTSAMLAWSLYEDKDAYDKSGQTKYIMDGIKWANDYFIKCNPTPGVYYYQVGDGGKDHSWWGPAEVMQMERPSFKVDASKPGSAVCASTAASLASAAVVFKSSDPTYAEKCISHAKNLFDMADKAKSDAGYTAASGYYSSSSFYDDLSWAAVWLYLATNDSTYLDKAESYVPNWGKEQQTDIIAYKWGQCWDDVHYGAELLLAKLTNKQLYKDSIEMNLDFWTTGVNGTRVSYTPKGLAWLFQWGSLRHATTQAFLAGVYAEWEGCTPSKVSVYKDFLKSQIDYALGSTGRSFVVGYGVNPPQHPHHRTAHGSWTDQMTSPTYHRHTIYGALVGGPDNADGYTDEINNYVNNEIACDYNAGFTGALAKMYKHSGGDPIPNFKAIEKITNDEVIIKAGLNSTGPNYTEIKAVVYNQTGWPARVTDKISFKYFMDLSEIVAAGIDPLSLVTSSNYSEGKNTKVSGVLPWDVSNNVYYVNVDLTGENIYPGGQSACRREVQFRIAAPQGRRYWNPKNDFSYDGLPTTSTVNTVTNIPVYDNGVKVFGNEPAGGSEPGTKLVPTWGDTNCDGVVNVADVVVLNRFLNDPTYSNITDQGKVNADVVDPQDKSGAAVDPAGVKLTVADSEAILKAIVELITLPQHHHHHH
notes: Expressed in E. coli; also called CelG-Df
On to B1, for which the binding result in test [1] and in test [2] was “no binding” each time.

B2: exoglucanase CelE from C. cellulolyticum fused to a dockerin domain from the same species (Ec), His6-tagged (enzyme)
chain: MLVGAGDLIRNHTFDNRVGLPWHVVESYPAKASFEITSDGKYKITAQKIGEAGKGERWDIQFRHRGLALQQGHTYTVKFTVTASRACKIYPKIGDQGDPYDEYWNMNQQWNFLELQANTPKTVTQTFTQTKGDKKNVEFAFHLAPDKTTSEAQNPASFQPITYTFDEIYIQDPQFAGYTEDPPEPTNVVRLNQVGFYPNADKIATVATSSTTPINWQLVNSTGAAVLTGKSTVKGADRASGDNVHIIDFSSYTTPGTDYKIVTDVSVTKAGDNESMKFNIGDDLFTQMKYDSMKYFYHNRSAIPIQMPYCDQSQWARPAGHTTDILAPDPTKDYKANYTLDVTGGWYDAGDHGKYVVNGGIATWTVMNAYERALHMGGDTSVAPFKDGSLAIPEAEVYPDILDEARYQLINMKTLLNSQVPAGKYAGMAHHKAHDERWTALAVRPDQDTMKRWLQPPSTAATLNLAAIAAQSSRLWKQFDSAFATKCLTAAETARDAAVAHPEIYATMEQGAGGGAYGDNYVLDDFYWAACELYATTGSDKYLNYIKSSKHYLEMPTELTGGENTGITGAFDWGCTAGMGTITLALVPTKLPAADVATAKANIQAAADKFISISKAQGYGVPLEEKVISSPFDASVVKGFQWGSNSFVINEAIVMSYAYEFSDVNGTKNNKYINGALTAMDYLLGRNPNIQSYITGYGDNPLENPHHRFWAYQADNTFPKPPPGCLSGGPNSGLQDPWVKGSGWQPGERPAEKCFMDNIESWSTNEITINWNAPLVWISAYLDEKGPEIGGSVTPPTNLGDVNGDGNKDALDFAALKKALLSQDTSTINVANADINKDGSIDAVDFALLKSFLLGKITQHHHHHH
notes: Expressed in E. coli and used as cell lysate or purified; also called CelE-Dc
On to B2, for which, in test [3], the binding result is “binds”.
